The sequences below were run against Jak2 (UniProt O60674) (assay: phosphorylation enrichment, bacterial display (enrichment ratio); higher = better substrate or ligand; peptides without Tyr show the background).
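Wherever SH2 binding enrichment of the phosphorylated peptide, bacterial display is given: peptide library displayed on the E. coli surface as eCPX fusions, selected cells deep-sequenced, score is each peptide's frequency after selection divided by its frequency in the input.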
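Wherever phosphorylation enrichment, bacterial display is given: 11-residue human phosphosite peptides and single-mutation variants displayed on the E. coli surface, counted by deep sequencing, each peptide's frequency after selection divided by its frequency in the unselected input library; frequency after pTyr selection over input frequency; kinase dosed for 20-30% of maximal phosphorylation in three min.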

| Sequence | phosphorylation enrichment |
| --- | --- |
| DNEALYDICFR [TUBB2B_Y208] | 1.38 |
| KVPCHYDDPGK [FOXG1_Y246_R244C] | 0.717 |
| RSLLQYGGSAN [ANK1_Y624] | 0.626 |

The sequences below were run against FGFR3 (UniProt P22607) in the same assay as above.

| Sequence | phosphorylation enrichment |
| --- | --- |
| DNEALYDICFR [TUBB2B_Y208] | 0.917 |
| KVPCHYDDPGK [FOXG1_Y246_R244C] | 0.598 |
| RSLLQYGGSAN [ANK1_Y624] | 0.772 |

The sequences below were run against Fes (UniProt P07332) in the same assay as above.
Sequence of Fes (P07332 whole entry, looked up): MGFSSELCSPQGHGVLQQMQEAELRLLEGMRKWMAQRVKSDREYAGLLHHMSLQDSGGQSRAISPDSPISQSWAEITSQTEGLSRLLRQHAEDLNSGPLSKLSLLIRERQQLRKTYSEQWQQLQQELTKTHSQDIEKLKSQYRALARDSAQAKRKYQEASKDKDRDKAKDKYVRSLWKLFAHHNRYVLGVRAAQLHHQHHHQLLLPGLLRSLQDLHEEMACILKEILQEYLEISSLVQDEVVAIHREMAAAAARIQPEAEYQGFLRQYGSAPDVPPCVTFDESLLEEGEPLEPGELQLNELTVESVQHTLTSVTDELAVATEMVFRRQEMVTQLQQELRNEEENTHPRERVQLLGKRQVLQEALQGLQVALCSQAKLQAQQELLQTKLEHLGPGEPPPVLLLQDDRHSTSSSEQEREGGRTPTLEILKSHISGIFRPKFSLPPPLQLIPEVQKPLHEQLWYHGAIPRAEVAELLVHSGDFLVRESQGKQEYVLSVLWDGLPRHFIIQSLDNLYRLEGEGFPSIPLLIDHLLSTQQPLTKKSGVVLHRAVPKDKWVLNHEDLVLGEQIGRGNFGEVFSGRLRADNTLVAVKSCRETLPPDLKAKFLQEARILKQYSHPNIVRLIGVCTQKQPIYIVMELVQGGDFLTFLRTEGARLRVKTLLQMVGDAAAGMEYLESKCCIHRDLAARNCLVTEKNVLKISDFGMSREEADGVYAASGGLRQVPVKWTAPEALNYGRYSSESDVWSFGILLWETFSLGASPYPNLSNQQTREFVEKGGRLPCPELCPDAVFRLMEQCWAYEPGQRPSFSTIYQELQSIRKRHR

| Sequence | phosphorylation enrichment |
| --- | --- |
| DNEALYDICFR [TUBB2B_Y208] | 1.6 |
| KVPCHYDDPGK [FOXG1_Y246_R244C] | 0.943 |
| RSLLQYGGSAN [ANK1_Y624] | 0.857 |

What follows are sequences tested against FGFR1 (UniProt P11362) in the same assay as above.
Sequence of FGFR1 (P11362 whole entry, looked up): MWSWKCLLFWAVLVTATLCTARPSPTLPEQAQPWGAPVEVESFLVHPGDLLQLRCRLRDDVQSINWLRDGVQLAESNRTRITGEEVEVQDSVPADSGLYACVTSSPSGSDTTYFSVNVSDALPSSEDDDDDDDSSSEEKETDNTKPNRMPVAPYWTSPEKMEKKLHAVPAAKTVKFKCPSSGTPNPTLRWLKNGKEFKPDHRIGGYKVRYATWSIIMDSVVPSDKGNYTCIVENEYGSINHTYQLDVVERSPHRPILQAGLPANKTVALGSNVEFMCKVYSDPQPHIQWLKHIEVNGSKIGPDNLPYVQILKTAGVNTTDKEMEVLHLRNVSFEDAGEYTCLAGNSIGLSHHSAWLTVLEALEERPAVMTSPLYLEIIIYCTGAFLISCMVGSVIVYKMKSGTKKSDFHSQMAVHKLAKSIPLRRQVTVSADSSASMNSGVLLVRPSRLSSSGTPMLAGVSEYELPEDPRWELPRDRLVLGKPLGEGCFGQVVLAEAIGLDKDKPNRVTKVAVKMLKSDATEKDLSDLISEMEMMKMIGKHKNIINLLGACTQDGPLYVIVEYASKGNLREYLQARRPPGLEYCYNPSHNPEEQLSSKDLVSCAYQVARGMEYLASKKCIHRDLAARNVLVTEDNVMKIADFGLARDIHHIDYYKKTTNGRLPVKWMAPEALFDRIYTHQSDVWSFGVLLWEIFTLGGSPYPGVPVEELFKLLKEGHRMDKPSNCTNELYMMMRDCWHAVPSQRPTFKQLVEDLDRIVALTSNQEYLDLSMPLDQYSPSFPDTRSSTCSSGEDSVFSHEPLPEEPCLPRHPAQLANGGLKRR

| Sequence | phosphorylation enrichment |
| --- | --- |
| DNEALYDICFR [TUBB2B_Y208] | 0.618 |
| KVPCHYDDPGK [FOXG1_Y246_R244C] | 0.412 |
| RSLLQYGGSAN [ANK1_Y624] | 0.574 |

What follows are sequences tested against Hck (UniProt P08631) in the same assay as above.
Sequence of Hck (P08631 whole entry, looked up): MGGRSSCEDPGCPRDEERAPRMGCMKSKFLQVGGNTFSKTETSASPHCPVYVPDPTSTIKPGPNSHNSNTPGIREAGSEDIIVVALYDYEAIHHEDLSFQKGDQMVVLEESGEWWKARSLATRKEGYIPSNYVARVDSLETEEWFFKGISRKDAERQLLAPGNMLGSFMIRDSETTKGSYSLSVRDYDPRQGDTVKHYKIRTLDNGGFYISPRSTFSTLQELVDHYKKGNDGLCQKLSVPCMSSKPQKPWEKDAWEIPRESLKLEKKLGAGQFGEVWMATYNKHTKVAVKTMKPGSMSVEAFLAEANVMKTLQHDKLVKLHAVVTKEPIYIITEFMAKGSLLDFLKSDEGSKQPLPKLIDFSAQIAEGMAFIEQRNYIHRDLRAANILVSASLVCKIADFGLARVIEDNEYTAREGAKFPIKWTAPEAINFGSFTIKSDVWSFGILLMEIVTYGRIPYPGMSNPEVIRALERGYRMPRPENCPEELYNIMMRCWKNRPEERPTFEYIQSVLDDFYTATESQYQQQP

| Sequence | phosphorylation enrichment |
| --- | --- |
| DNEALYDICFR [TUBB2B_Y208] | 6.43 |
| KVPCHYDDPGK [FOXG1_Y246_R244C] | 0.793 |
| RSLLQYGGSAN [ANK1_Y624] | 0.813 |

The sequences below were run on c-Src in the same assay as above.

| Sequence | phosphorylation enrichment |
| --- | --- |
| DNEALYDICFR [TUBB2B_Y208] | 5.86 |
| KVPCHYDDPGK [FOXG1_Y246_R244C] | 0.443 |
| RSLLQYGGSAN [ANK1_Y624] | 0.459 |

Each sequence was assayed on c-Abl (mouse) in the same assay as above.

| Sequence | phosphorylation enrichment |
| --- | --- |
| DNEALYDICFR [TUBB2B_Y208] | 3.58 |
| KVPCHYDDPGK [FOXG1_Y246_R244C] | 0.707 |
| RSLLQYGGSAN [ANK1_Y624] | 1.01 |

What follows are sequences tested against EPHB2 (UniProt P29323) in the same assay as above.
Sequence of EPHB2 (P29323 whole entry, looked up): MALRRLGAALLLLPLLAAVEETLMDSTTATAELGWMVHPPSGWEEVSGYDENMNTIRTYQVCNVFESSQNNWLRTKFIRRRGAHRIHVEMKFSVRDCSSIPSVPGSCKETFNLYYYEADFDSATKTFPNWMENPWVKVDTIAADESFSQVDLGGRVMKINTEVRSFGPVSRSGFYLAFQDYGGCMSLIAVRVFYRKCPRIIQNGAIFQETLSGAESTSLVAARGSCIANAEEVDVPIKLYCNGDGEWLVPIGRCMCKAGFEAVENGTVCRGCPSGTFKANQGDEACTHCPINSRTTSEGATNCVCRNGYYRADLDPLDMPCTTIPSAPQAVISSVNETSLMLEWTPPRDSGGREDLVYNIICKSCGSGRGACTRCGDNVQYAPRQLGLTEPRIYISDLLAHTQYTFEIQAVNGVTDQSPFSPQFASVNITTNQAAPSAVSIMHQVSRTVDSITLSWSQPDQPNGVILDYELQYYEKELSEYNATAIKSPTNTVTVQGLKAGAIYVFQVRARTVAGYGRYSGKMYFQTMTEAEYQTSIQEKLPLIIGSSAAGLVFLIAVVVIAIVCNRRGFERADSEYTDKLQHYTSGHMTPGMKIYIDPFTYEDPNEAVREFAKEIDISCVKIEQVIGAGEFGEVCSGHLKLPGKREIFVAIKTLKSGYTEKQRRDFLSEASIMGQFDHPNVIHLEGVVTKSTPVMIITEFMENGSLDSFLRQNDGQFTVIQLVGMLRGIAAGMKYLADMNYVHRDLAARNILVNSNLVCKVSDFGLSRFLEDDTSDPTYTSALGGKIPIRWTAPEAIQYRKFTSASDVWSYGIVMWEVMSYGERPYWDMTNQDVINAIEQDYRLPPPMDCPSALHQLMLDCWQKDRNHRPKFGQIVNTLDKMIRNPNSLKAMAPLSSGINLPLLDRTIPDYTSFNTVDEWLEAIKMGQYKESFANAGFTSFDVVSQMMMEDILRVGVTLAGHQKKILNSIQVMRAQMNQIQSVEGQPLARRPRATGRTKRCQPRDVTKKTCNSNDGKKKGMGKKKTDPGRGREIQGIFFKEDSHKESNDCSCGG

| Sequence | phosphorylation enrichment |
| --- | --- |
| DNEALYDICFR [TUBB2B_Y208] | 4.88 |
| KVPCHYDDPGK [FOXG1_Y246_R244C] | 0.527 |
| RSLLQYGGSAN [ANK1_Y624] | 0.717 |

The sequences below were run on Fer (mouse) in the same assay as above.

| Sequence | phosphorylation enrichment |
| --- | --- |
| DNEALYDICFR [TUBB2B_Y208] | 10.2 |
| KVPCHYDDPGK [FOXG1_Y246_R244C] | 0.86 |
| RSLLQYGGSAN [ANK1_Y624] | 0.8 |

What follows are sequences tested against EPHB1 (UniProt P54762) in the same assay as above.

| Sequence | phosphorylation enrichment |
| --- | --- |
| DNEALYDICFR [TUBB2B_Y208] | 4.63 |
| KVPCHYDDPGK [FOXG1_Y246_R244C] | 0.469 |
| RSLLQYGGSAN [ANK1_Y624] | 0.709 |

What follows are sequences tested on AncSZ in the same assay as above.

| Sequence | phosphorylation enrichment |
| --- | --- |
| DNEALYDICFR [TUBB2B_Y208] | 3.21 |
| KVPCHYDDPGK [FOXG1_Y246_R244C] | 0.827 |
| RSLLQYGGSAN [ANK1_Y624] | 0.964 |

The sequences below were run against Fyn (UniProt P06241) in the same assay as above.
Sequence of Fyn (P06241 whole entry, looked up): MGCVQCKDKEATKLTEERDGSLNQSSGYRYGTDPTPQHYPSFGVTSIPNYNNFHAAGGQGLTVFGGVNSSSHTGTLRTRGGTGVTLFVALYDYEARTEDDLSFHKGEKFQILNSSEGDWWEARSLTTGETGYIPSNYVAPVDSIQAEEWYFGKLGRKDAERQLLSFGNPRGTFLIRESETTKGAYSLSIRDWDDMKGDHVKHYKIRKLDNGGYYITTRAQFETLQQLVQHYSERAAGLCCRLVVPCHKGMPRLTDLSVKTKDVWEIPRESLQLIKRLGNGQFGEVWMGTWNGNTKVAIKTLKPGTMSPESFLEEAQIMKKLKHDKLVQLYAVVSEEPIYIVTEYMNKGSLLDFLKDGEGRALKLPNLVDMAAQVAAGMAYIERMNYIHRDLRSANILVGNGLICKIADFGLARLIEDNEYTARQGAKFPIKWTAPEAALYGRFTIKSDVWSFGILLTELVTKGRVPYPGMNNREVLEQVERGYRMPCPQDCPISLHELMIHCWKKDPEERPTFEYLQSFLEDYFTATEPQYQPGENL

| Sequence | phosphorylation enrichment |
| --- | --- |
| DNEALYDICFR [TUBB2B_Y208] | 6.65 |
| KVPCHYDDPGK [FOXG1_Y246_R244C] | 0.437 |
| RSLLQYGGSAN [ANK1_Y624] | 0.537 |

What follows are sequences tested against MERTK (UniProt Q12866) in the same assay as above.
Sequence of MERTK (Q12866 whole entry, looked up): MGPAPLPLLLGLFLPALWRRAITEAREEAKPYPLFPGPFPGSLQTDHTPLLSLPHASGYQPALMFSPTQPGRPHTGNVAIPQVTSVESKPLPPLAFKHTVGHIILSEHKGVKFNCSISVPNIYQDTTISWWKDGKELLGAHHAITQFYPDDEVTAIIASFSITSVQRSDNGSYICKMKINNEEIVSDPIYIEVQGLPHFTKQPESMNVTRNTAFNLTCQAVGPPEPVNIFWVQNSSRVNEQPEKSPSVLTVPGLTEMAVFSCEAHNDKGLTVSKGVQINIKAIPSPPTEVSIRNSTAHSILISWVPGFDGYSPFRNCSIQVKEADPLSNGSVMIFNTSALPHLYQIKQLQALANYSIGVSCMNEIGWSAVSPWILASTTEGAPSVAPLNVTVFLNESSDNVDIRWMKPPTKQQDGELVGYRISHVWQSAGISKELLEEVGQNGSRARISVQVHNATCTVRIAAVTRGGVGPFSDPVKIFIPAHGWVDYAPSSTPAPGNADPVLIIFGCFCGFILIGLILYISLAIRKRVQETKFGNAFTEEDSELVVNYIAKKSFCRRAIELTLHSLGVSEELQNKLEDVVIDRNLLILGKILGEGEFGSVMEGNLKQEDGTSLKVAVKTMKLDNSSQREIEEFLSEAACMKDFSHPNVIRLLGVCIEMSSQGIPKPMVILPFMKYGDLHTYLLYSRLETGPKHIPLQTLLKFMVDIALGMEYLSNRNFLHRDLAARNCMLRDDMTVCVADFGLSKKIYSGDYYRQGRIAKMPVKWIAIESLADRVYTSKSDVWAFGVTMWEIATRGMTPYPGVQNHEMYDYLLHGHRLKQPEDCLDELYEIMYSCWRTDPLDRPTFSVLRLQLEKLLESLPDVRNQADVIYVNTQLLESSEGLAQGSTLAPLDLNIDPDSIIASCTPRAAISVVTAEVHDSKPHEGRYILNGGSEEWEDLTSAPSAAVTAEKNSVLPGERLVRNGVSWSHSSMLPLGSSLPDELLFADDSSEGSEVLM

| Sequence | phosphorylation enrichment |
| --- | --- |
| DNEALYDICFR [TUBB2B_Y208] | 7.51 |
| KVPCHYDDPGK [FOXG1_Y246_R244C] | 0.412 |
| RSLLQYGGSAN [ANK1_Y624] | 0.439 |

These sequences were tested against c-Src SH2 (assay: SH2 binding enrichment of the phosphorylated peptide, bacterial display (enrichment ratio); higher = better substrate or ligand; peptides without Tyr show the background).

| Sequence | SH2 binding enrichment |
| --- | --- |
| DNEALYDICFR [TUBB2B_Y208] | 0.469 |
| KVPCHYDDPGK [FOXG1_Y246_R244C] | 2.01 |
| RSLLQYGGSAN [ANK1_Y624] | 0.482 |

Each sequence was assayed against Grb2 SH2 (UniProt P62993) in the same assay as above.
Sequence of Grb2 SH2 (P62993 whole entry, looked up): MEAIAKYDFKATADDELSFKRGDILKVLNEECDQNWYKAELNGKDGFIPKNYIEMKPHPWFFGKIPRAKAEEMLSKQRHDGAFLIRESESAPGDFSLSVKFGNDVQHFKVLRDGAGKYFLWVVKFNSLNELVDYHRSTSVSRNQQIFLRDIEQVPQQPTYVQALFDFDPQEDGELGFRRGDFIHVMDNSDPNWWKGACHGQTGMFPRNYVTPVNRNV

| Sequence | SH2 binding enrichment |
| --- | --- |
| DNEALYDICFR [TUBB2B_Y208] | 0.77 |
| KVPCHYDDPGK [FOXG1_Y246_R244C] | 0.906 |
| RSLLQYGGSAN [ANK1_Y624] | 0.749 |

What follows are sequences tested against SHP2-C SH2 in the same assay as above.

| Sequence | SH2 binding enrichment |
| --- | --- |
| DNEALYDICFR [TUBB2B_Y208] | 0.627 |
| KVPCHYDDPGK [FOXG1_Y246_R244C] | 0.838 |
| RSLLQYGGSAN [ANK1_Y624] | 0.716 |
